According to the supplement of paper PMC10567573:

B1: ATL3 (parent)
chain: FSFRYQQELEEEIKELYENFCKHN
B2: PDLIM4 (parent)
chain: FLDERLYCESHAKARVKPPEGYDV

Variants of: B1
Test: protein stability index of a GFP-peptide fusion (GPS, HEK-293T) (PSI 1-6); higher = more stable
Settings: c terminus: a fixed tail appended
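Note: lentivirally expressed fusions sorted by FACS into six bins by GFP to DsRed ratio, PSI derived from sequencing read proportions per bin multiplied by bin number.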

Point of comparison: FSFRYQQELEEEIKELYENFIKHN [C21I], protein stability index 2.05. Against it:
- FSFRYQQELEEEIKELYENFCNHN [K22N] — higher, 2.54
- FSFRYQQELEEEIKELYENFCMHN [K22M] — higher, 2.24
- FSFRYQQELEEEIKELYENFCVHN [K22V] — lower, 1.99
- FSFRYQQELEEEIKELYENFCFHN [K22F] — higher, 2.08
- FSFRYQQELEEEIKELYENFCSHN [K22S] — higher, 2.33
- FSFRYQQELEEEIKELYENFCLHN [K22L] — higher, 2.77
- FSFRYQQELEEEIKELYENFCIHN [K22I] — higher, 2.23
- FSFRYQQELEEEIKELYENFCRHN [K22R] — higher, 2.12
- FSFRYQQELEEEIKELYENFCTHN [K22T] — higher, 3.02
- FSFRYQQELEEEIKELYENFCWHN [K22W] — lower, 1.35
- FSFRYQQELEEEIKELYENFCDHN [K22D] — higher, 2.42
- FSFRYQQELEEEIKELYENFCGHN [K22G] — higher, 2.58
- FSFRYQQELEEEIKELYENFCPHN [K22P] — lower, 1.97
- FSFRYQQELEEEIKELYENFCHHN [K22H] — lower, 2.04
- FSFRYQQELEEEIKELYENFCAHN [K22A] — higher, 2.45
- FSFRYQQELEEEIKELYENFCYHN [K22Y] — lower, 2.01
- FSFRYQQELEEEIKELYENFCQHN [K22Q] — higher, 2.93
- FSFRYQQELEEEIKELTENFCKHN [Y17T] — higher, 3.76
- FSFRYQQELEEEIKELCENFCKHN [Y17C] — higher, 3.09
- FSFRYQQELEEEIKELWENFCKHN [Y17W] — higher, 2.48
- FSFRYQQELEEEIKELEENFCKHN [Y17E] — higher, 3.97
- FSFRYQQELEEEIKELMENFCKHN [Y17M] — higher, 2.68
- FSFRYQQELEEEIKELNENFCKHN [Y17N] — higher, 3.09
- FSFRYQQELEEEIKELLENFCKHN [Y17L] — higher, 2.36
- FSFRYQQELEEEIKELSENFCKHN [Y17S] — higher, 3.49
- FSFRYQQELEEEIKELRENFCKHN [Y17R] — higher, 2.73
- FSFRYQQELEEEIKELQENFCKHN [Y17Q] — higher, 4.02
- FSFRYQQELEEEIKELKENFCKHN [Y17K] — higher, 2.89
- FSFRYQQELEEEIKELPENFCKHN [Y17P] — higher, 4.27
- FSFRYQQELEEEIKELFENFCKHN [Y17F] — higher, 2.16
- FSFRYQQELEEEIKELDENFCKHN [Y17D] — higher, 2.92
- FSFRYQQELEEEIKELHENFCKHN [Y17H] — higher, 3.05
- FSFRYQQELEEEIKELIENFCKHN [Y17I] — higher, 2.92
- FSFRYQQELEEEIKELAENFCKHN [Y17A] — higher, 3.16
- FSFRYQQELEEEIKELVENFCKHN [Y17V] — higher, 3.33
- FSFRYQQELEEEIKELGENFCKHN [Y17G] — higher, 4.22
- FSFRYQQELEEEIKELYENFWKHN [C21W] — higher, 2.31
- FSFRYQQELEEEIKELYENFEKHN [C21E] — higher, 3.12
- FSFRYQQELEEEIKELYENFNKHN [C21N] — higher, 2.58
- FSFRYQQELEEEIKELYENFYKHN [C21Y] — lower, 1.77
- FSFRYQQELEEEIKELYENFLKHN [C21L] — higher, 2.13
- FSFRYQQELEEEIKELYENFQKHN [C21Q] — higher, 3.08
- FSFRYQQELEEEIKELYENFVKHN [C21V] — higher, 2.62
- FSFRYQQELEEEIKELYENFFKHN [C21F] — higher, 2.1
- FSFRYQQELEEEIKELYENFRKHN [C21R] — higher, 2.46
- FSFRYQQELEEEIKELYENFTKHN [C21T] — lower, 1.97
- FSFRYQQELEEEIKELYENFDKHN [C21D] — higher, 3.33
- FSFRYQQELEEEIKELYENFGKHN [C21G] — higher, 2.55
- FSFRYQQELEEEIKELYENFPKHN [C21P] — higher, 2.11
- FSFRYQQELEEEIKELYENFKKHN [C21K] — higher, 2.66
- FSFRYQQELEEEIKELYENFMKHN [C21M] — higher, 2.32
- FSFRYQQELEEEIKELYENFAKHN [C21A] — higher, 3.33
- FSFRYQQELEEEIKELYENFSKHN [C21S] — higher, 2.48
- FSFRYQQELEEEIKELYENFHKHN [C21H] — higher, 2.18

Variants of: B2
Test: as above
Settings: c terminus: a fixed tail appended

Point of comparison: SLDERLYCESHAKARVKPPEGYDV [F1S], protein stability index 4.63. Against it:
- HLDERLYCESHAKARVKPPEGYDV [F1H] — lower, 4.26
- TLDERLYCESHAKARVKPPEGYDV [F1T] — higher, 4.72
- YLDERLYCESHAKARVKPPEGYDV [F1Y] — lower, 1.3
- ELDERLYCESHAKARVKPPEGYDV [F1E] — higher, 4.68
- VLDERLYCESHAKARVKPPEGYDV [F1V] — lower, 3.92
- MLDERLYCESHAKARVKPPEGYDV [F1M] — lower, 4.29
- ALDERLYCESHAKARVKPPEGYDV [F1A] — lower, 4.23
- WLDERLYCESHAKARVKPPEGYDV [F1W] — lower, 2.5
- LLDERLYCESHAKARVKPPEGYDV [F1L] — lower, 3.89
- QLDERLYCESHAKARVKPPEGYDV [F1Q] — lower, 4.58
- ILDERLYCESHAKARVKPPEGYDV [F1I] — lower, 4.27
- PLDERLYCESHAKARVKPPEGYDV [F1P] — higher, 5
- NLDERLYCESHAKARVKPPEGYDV [F1N] — lower, 4.21
- RLDERLYCESHAKARVKPPEGYDV [F1R] — lower, 4.28
- DLDERLYCESHAKARVKPPEGYDV [F1D] — lower, 4.34
- CLDERLYCESHAKARVKPPEGYDV [F1C] — lower, 3.43
- KLDERLYCESHAKARVKPPEGYDV [F1K] — lower, 4.43
- FLCERLYCESHAKARVKPPEGYDV [D3C] — lower, 3.79
- FLEERLYCESHAKARVKPPEGYDV [D3E] — lower, 1.94
- FLAERLYCESHAKARVKPPEGYDV [D3A] — lower, 2.14
- FNDERLYCESHAKARVKPPEGYDV [L2N] — lower, 3.48
- FCDERLYCESHAKARVKPPEGYDV [L2C] — lower, 1.96
- FVDERLYCESHAKARVKPPEGYDV [L2V] — lower, 2.42
- FRDERLYCESHAKARVKPPEGYDV [L2R] — lower, 2.96
- FIDERLYCESHAKARVKPPEGYDV [L2I] — lower, 1.38
- FMDERLYCESHAKARVKPPEGYDV [L2M] — lower, 1.67
- FTDERLYCESHAKARVKPPEGYDV [L2T] — lower, 2.54
- FSDERLYCESHAKARVKPPEGYDV [L2S] — lower, 3.37
- FYDERLYCESHAKARVKPPEGYDV [L2Y] — lower, 3.53
- FQDERLYCESHAKARVKPPEGYDV [L2Q] — lower, 2.12
- FDDERLYCESHAKARVKPPEGYDV [L2D] — lower, 4.28
- FKDERLYCESHAKARVKPPEGYDV [L2K] — lower, 3.99
- FHDERLYCESHAKARVKPPEGYDV [L2H] — lower, 2.24
- FFDERLYCESHAKARVKPPEGYDV [L2F] — lower, 3.46
- FGDERLYCESHAKARVKPPEGYDV [L2G] — lower, 3.4
- FWDERLYCESHAKARVKPPEGYDV [L2W] — lower, 2.47
- FPDERLYCESHAKARVKPPEGYDV [L2P] — lower, 2.98
- FADERLYCESHAKARVKPPEGYDV [L2A] — lower, 1.81
